Source: patent publication US20240417462A1 (SHANGHAI CELGEN BIO PHARMACEUTICAL, published 2024)
Where “and” joins values, the source holds several entries; their conditions need not be identical. Equal values may be shown once. Read-outs that look alike come from different tables or passages of the source.

T1: full-length human TIGIT expressed on CHO-K cell membrane (CHO-K-TIGIT) (human, UniProt Q495A1 22-244)
T1 construct: whole, on cells; also called CHO-TIGIT; membrane TIGIT
T1 sequence (looked up): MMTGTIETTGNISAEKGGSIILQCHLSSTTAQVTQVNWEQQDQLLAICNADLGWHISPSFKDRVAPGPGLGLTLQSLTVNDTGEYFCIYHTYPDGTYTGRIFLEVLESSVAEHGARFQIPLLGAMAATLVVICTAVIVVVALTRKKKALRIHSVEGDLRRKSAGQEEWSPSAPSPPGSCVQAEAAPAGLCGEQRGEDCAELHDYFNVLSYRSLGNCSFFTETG

T2: recombinant human TIGIT (Human TIGIT His, Sino Biological, 10917-H08H) (human, UniProt Q495A1 22-138)
T2 construct: range 1-138; bought; also called hTIGIT
T2 sequence (looked up): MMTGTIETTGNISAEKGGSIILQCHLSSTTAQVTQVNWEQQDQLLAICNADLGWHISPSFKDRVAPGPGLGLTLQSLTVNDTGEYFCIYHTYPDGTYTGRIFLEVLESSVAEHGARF

T3: mouse TIGIT antigen (mouse, UniProt P86176 29-148, limits assumed)
T3 construct: construct not described; also called murine TIGIT
T3 sequence (looked up): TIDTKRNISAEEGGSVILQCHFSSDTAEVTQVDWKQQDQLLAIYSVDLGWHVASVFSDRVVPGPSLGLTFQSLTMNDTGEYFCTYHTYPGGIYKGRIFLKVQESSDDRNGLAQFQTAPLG


Tests used:
[1] = molecular target: T1, full-length human TIGIT expressed on …; experiment: flow cytometry, CHO-TIGIT cells
[2] = molecular target: T2, recombinant human TIGIT (Human TIGIT …); experiment: ELISA, recombinant human TIGIT (His) coated, anti-human-Fc-AP, OD405/490
Protocol: (§1) Antigen hTIGIT (Human TIGIT (His), Sino Biological, 10917-H08H) was diluted into 1 μg/mL with a NaHCO₃ solution of pH 9.6, 50 μl per well was added to a 96-well ELISA plate, and placed overnight in refrigerator at 4° C.
(§2) In order to determine whether the humanized TIGIT monoclonal antibody of the present disclosure could bind to the recombinant human TIGIT protein, in vitro testing was performed. Murine antibodies and Tiragolumab (Tira) were used as positive controls. The experimental method was the same as in Example 3.1.

[3] = molecular target: T2, recombinant human TIGIT (Human TIGIT …); experiment: as above; remark: listed apart in the source
Protocol: as §1, §2

[4] = molecular target: T2, recombinant human TIGIT (Human TIGIT …); experiment: competition ELISA, coated TIGIT-His, CD155-mFC as competitor
Protocol: Antigen TIGIT (Human TIGIT (His), Sino Biological, 10917-H08H) was diluted with pH 9.6 of NaHCO₃ solution into 1 μg/mL, 50 μL per well was added to a 96-well ELISA plate, and placed overnight at 4° C. in a refrigerator. The next day, after washing with PBS twice, plate was blocked with 3% BSA (100 μL per well) by incubating at 37° C. for 1.5 h, and washed 4 times with PBST.

[5] = molecular target: T2, recombinant human TIGIT (Human TIGIT …); experiment: competition ELISA, human TIGIT (His) coated, antibody titrated against fixed CD155, bound CD155 detected, OD450/655
[6] = molecular target: T2, recombinant human TIGIT (Human TIGIT …); experiment: competition ELISA, coated TIGIT-His, CD155-Fc as competitor
Protocol: In order to evaluate the competition between the anti-human TIGIT mouse monoclonal antibody and CD155 (Human CD155 (Fc Tag): Sino Biological, 10109-H02H) for binding to recombinant human TIGIT (Human TIGIT(His), Sino Biological, 10917-H08H), ELISA detection was performed, and the specific steps were as follows:
Primary antibody incubation: the plate was washed twice with PBS (250 μl/well), and patched dry. 6 μg/ml of CD155 was respectively diluted in a binding solution and added into a 96-well dilution plate at 60 μl/well. Then the screened hybridoma antibody was diluted with the binding solution, (the highest concentration was 30 μg/ml), and diluted to 3 times of concentration, and added into the corresponding dilution plate above at 60 μl/well. After mixing well, the sample was added to the coated 96-well ELISA plate at 100 μl/well. The plate was sealed with a sealing film and placed at 37° C. for 1.5 hours.
Secondary antibody incubation: the blocking solution was discarded, the plate was washed with 250 μl PBST for 3 times, and patched dry.

mouse TIGIT antigen = molecular target: T3, mouse TIGIT antigen; experiment: ELISA, coated mouse TIGIT
Protocol: (§3) The cynomolgus monkey or mouse TIGIT antigen of was coated with the same method as above, the anti-human TIGIT mouse monoclonal antibody was diluted in gradient, and then the anti-mouse Fab secondary antibody was added (Jackson Immuno Research, 515-035-072) for TMB development. ELISA was used to detect the binding of 8 mouse monoclonal antibodies to recombinant cynomolgus monkey TIGIT.

[7] = molecular target: T4, recombinant cynomolgus monkey TIGIT (cynomolgus monkey, UniProt A0A7N9I9V4 89-209); experiment: ELISA, recombinant cynomolgus TIGIT coated, anti-mouse Fab secondary antibody, TMB, OD450/655nm
T4 construct: construct not described; also called cynomolgus TIGIT
Protocol: as §3

[8] = molecular target: T4, recombinant cynomolgus monkey TIGIT; experiment: ELISA, coated cynomolgus TIGIT
Protocol: as §3

[9] = molecular target: T2, recombinant human TIGIT (Human TIGIT …); experiment: ELISA, coated human TIGIT-His
[10] = molecular target: T2, recombinant human TIGIT (Human TIGIT …); experiment: BLI, antibody captured on anti-human Fc probe, TIGIT-His in solution
Protocol: The dissociation constant (Kd) of the human mouse chimeric TIGIT monoclonal antibody was detected by using a GATORS (ProbeLife) detection instrument and an HFC (LOT #2007065 Tray 2), Human antibody Capture probe. The human mouse chimeric TIGIT monoclonal antibody was diluted to 30 nM in a binding buffer (Q buffer [PBS (10 mM PH7.4)+0.02% Tween 20+0.2% BSA]). The recombinant human TIGIT protein was diluted in Q buffer in a 2-fold gradient to different concentrations varying in the range of 40 nM to 10 nM. A kinetic correlation determination was initiated by placing an antibody capture sensor in the continuously diluted antigen solution described above. Octet Data Acquisition software was opened and New Kinetics Experiment-Basic Kinetics mode was selected.

[11] = molecular target: T2, recombinant human TIGIT (Human TIGIT …); experiment: as above; remark: listed apart in the source

T4 sequence (A0A7N9I9V4 entry or part of it): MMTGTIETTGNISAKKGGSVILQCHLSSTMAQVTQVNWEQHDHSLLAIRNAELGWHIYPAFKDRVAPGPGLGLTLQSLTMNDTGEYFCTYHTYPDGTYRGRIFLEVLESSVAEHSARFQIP

| Binder | EC50 [1] | EC50 [2] [µg/mL] | EC50 [3] [µg/mL] | IC50 [4] [nM] | IC50 [5] [µg/mL] | IC50 [6] [nM] | binding result (mouse TIGIT antigen) | EC50 [7] [µg/mL] | EC50 [8] [nM] | EC50 [9] [nM] | Kd [10] [nM] | koff [10] [s⁻¹] | kon [10] [M⁻¹ s⁻¹] | Kd [11] [nM] | koff [11] [s⁻¹] | kon [11] [M⁻¹ s⁻¹] |
| --- | --- | --- | --- | --- | --- | --- | --- | --- | --- | --- | --- | --- | --- | --- | --- | --- |
| Tiragolumab (antibody, V domains shown) VH: EVQLQQSGPGLVKPSQTLSLTCAISGDSVSSNSAAWNWIRQSPSRGLEWLGKTYYRFKWYSDYAVSVKGRITINPDTSKNQFSLQLNSVTPEDTAVFYCTRESTTYDLLAGPFDYWGQGTLVTVSS VL: not shown | 1.36 nM and 3.84 nM and 1.72 nM | 0.0242 | 0.0806 | 5.24 | 0.116 | – | – | – | – | – | – | – | – | – | – | – |
| anti-human TIGIT mouse monoclonal antibody 7103-06 (antibody, V domains shown, often printed as 7105-06; also called 7105-06; 47A2-1-2) VH: EEQLVESGGGLVKPGGTLKLSCAASGFTFSTYAMSWVRQSPEKRLEWVAEISSGGSYTYYSDTVTGRFTISRDNAKNTLYLEMSSLRSEDTAMYYCARKTLDYYALDYWGHGTSVTVSS VL: DVQITQSPSYLAASPGETITINCRANKTISKYLAWYQEKPGKTNKLLIYSGSRLQSGIPSKFSGSGYGTDFTLTISSLEPEDFAMYYCQQHNEYPWTFGGGTKLEIK | 0.256 nM | – | – | – | – | 0.0607 | no binding | 0.026 | 0.174 | 0.0393 | – | – | – | – | – | – |
| anti-human TIGIT human mouse chimeric monoclonal antibody 7103-07 (hFc) (antibody, V domains shown, also called 7303-07 (hFc); human mouse chimeric antibody) VH: EVQVVESGGGLVKPGGTLKLSCAASGFTFSTYAMSWVRQSPEQRLEWVAEISSGGSHTFYSDTVTGRFTISRDNAQNTLYLEMNSLRSEDTAMYYCARKTLDYYALDYWGQGTSVTVSS VL: DVQITQSPSYLAASPGETITINCRASKSISKYLAWYQEKPGKTNKLLIYSGSRLQSGIPSKFSGSGYGTDFTLTISSLEPEDFAMYYCQQHNEYPWTFGGGTKVEIK | 1.35 nM and 0.927 nM | 0.0095 | – | 1.7 | 0.041 | – | – | – | – | – | 1.72 | 0.00167 | 971000 | 2.96 | 0.00169 | 573000 |
| anti-human TIGIT mouse monoclonal antibody 7103-07 (antibody, V domains shown, also called 42C12-1-2) VH: EVQVVESGGGLVKPGGTLKLSCAASGFTFSTYAMSWVRQSPEQRLEWVAEISSGGSHTFYSDTVTGRFTISRDNAQNTLYLEMNSLRSEDTAMYYCARKTLDYYALDYWGQGTSVTVSS VL: DVQITQSPSYLAASPGETITINCRASKSISKYLAWYQEKPGKTNKLLIYSGSRLQSGIPSKFSGSGYGTDFTLTISSLEPEDFAMYYCQQHNEYPWTFGGGTKVEIK | 0.226 nM | – | – | – | – | 0.159 | no binding | 0.106 | 0.704 | 0.075 | – | – | – | – | – | – |
| anti-human TIGIT mouse monoclonal antibody 7103-01 (antibody, V domains shown, also called 31E10-2-1) VH: QVQLQQPGAELVKPGASVKLSCKASGYTFISYNIYWVKQRPGQGLEWIGGVNPSNGNTNFNENFKSKATLTVDKSSSTAYMQLSSLTSDDSAVYFCTRGNYYGYEFAYWGQGTLVTVSA VL: DIVMTQSHKFMSTSVGDRVSITCKASQHVSTAVAWYQQKPGQSPKLLIYSPSYRYTGVPDRFTGSGSGTDFTFTISSVQAEDLAVYYCQQHYSTPWTFGGGTKLEIK | 0.499 nM | – | – | – | – | 0.178 | no binding | 0.16 | 1.07 | 0.0647 | – | – | – | – | – | – |
| anti-human TIGIT mouse monoclonal antibody 7103-03 (antibody, V domains shown, also called 36H8-2-2) VH: EVQLQQSGPELVKPGASVKISCKTSGYTFTEYTMHWVKQSHGKSLEWIGGINPNNGGTSYNQKFKGKATLTVDKSSSTAYMELRSLTSEDSAVYYCARGAYYRYDFDYWGQGTTLTVSS VL: DIVMTQSHKFMSTSVGDRVSITCKASQDVRTAVVWYQQKPGQSPKLLIYSASYRYTGVPDRFTGSGSGTDFTFTISSVQAEDLAVYYCQQHYSTPWTFGGGTKLEIK | 0.347 nM | – | – | – | – | 0.141 | no binding | 0.06 | 0.398 | 0.0674 | – | – | – | – | – | – |
| anti-human TIGIT mouse monoclonal antibody 7103-04 (antibody, V domains shown, also called 40E6-2-2) VH: VQLQESGAELVKPGASVKLSCRASGYTFTDYFVYWVKQRPGQGLEWIGGINPSNGGATFNEKFKNKATLTVDTSSSTAYMQLSSLTSEDSAIYYCTRGNFYGYEFAYWGQGTLVTVSA VL: DIVMTQSHKFISTSVGDRVSITCKASQHVSTAVVWYQQKPGQSPKLLIYSPSYRYTGVPDRFTGSGSGTDFTFTISSVQAEDLAVYYCQQHYITPWTFGGGTKLEIK | 0.44 nM | – | – | – | – | 0.183 | no binding | 0.05 | 0.334 | 0.0727 | – | – | – | – | – | – |
